The text below walks through data of paper PMC5378873 (Oncogene, 2016).

This assay deals with FKBP12 (protein used for ITC) (human, UniProt P62942 1-108). The assay is described as follows: ITC.
Sequence of FKBP12 (protein used for ITC) (P62942 whole entry): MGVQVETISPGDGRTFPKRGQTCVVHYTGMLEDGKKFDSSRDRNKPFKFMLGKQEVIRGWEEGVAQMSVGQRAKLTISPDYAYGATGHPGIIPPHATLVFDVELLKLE

B1: MDM2 (425-491) RING domain (protein used for ITC) (domain or fragment, human, UniProt Q00987 425-491, looked up)
chain: SVESSLPLNAIEPCVICQGRPKNGCIVHGKTGHLMACFTCAKKLKKRNKPCPVCRQPIQMIVLTYFP
B1: the Kd is 1940 nM.
